Measured values reported in paper PMC8526985, “Characterization of the transactivation and nuclear localization functions of Pichia pastoris zinc finger transcription factor Mxr1p”.
Positions count from the first letter of the chain named.

T1: Mxr1pN150 (Pichia pastoris (Komagataella phaffii), UniProt C4R818 1-150)
T1 sequence: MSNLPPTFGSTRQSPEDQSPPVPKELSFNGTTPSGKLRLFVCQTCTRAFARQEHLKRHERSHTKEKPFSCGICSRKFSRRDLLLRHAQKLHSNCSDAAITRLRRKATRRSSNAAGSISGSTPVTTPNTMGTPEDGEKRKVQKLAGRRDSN

B1: ALD6-1 promoter MXRE1 (dsDNA)
DNA 1: CCGCTCAACGGTTCTCCTCTACATCGTCCCTCTTTTGGAG
DNA 2: CTCCAAAAGAGGGACGATGTAGAGGAGAACCGTTGAGCGG
B2: MXRE1-M (dsDNA)
DNA 1: B1 DNA 1 with C17A
DNA 2: B1 DNA 2 with G24T
B3: ALD6-1 promoter MXRE3 (dsDNA)
DNA 1: ACCCTATACTCCACCACTATGAGGGTTATTAGAACTGATC
DNA 2: GATCAGTTCTAATAACCCTCATAGTGGTGGAGTATAGGGT
B4: MXRE3-M (dsDNA)
DNA 1: B3 DNA 1 with C12A
DNA 2: B3 DNA 2 with G29T
B5: ALD6-1 promoter MXRE2 (dsDNA)
DNA 1: CCGCACCCCCGAATTTTCACAAATTACCCCACACCCTATA
DNA 2: TATAGGGTGTGGGGTAATTTGTGAAAATTCGGGGGTGCGG
B6: MXRE2-M (dsDNA)
DNA 1: B5 DNA 1 with C30A
DNA 2: B5 DNA 2 with G11T

Target: T1, Mxr1pN150
Test: EMSA; EMSA conditions not given in the material
Details: protein: recombinant; (radiolabeled)

Binder	binding result
B1	binds
B2	no binding
B3	binds
B4	no binding
B5	binds
B6	no binding
